# From patent US20180355338A1
# What was measured:
# [1] = molecular target: TY-145 protease variant S27K, S171N, S173P, G174R, S175P, F180Y, L184F, Q198E, T297P (Bacillus sp. TY-145); experiment: Ki fitted from Suc-AAPF-pNA activity; Model B detergent; ratio against m4 (without L184F)
# [2] = molecular target: TY-145 protease variant R224G (Bacillus sp. TY-145); experiment: Ki fitted from Suc-AAPF-pNA activity; Model B detergent; relative to TY145 backbone
# [3] = molecular target: TY-145 protease variant G182A (Bacillus sp. TY-145); experiment: as above
# [4] = molecular target: TY-145 protease variant Q70A (Bacillus sp. TY-145); experiment: as above
# [5] = molecular target: TY-145 protease variant Y240R (Bacillus sp. TY-145); experiment: as above
# [6] = molecular target: TY-145 protease variant I150N (Bacillus sp. TY-145); experiment: as above
# [7] = molecular target: TY-145 protease variant Q70F (Bacillus sp. TY-145); experiment: as above
# [8] = molecular target: TY-145 protease variant S111R (Bacillus sp. TY-145); experiment: as above
# [9] = molecular target: TY-145 protease variant I150S (Bacillus sp. TY-145); experiment: as above
# [10] = molecular target: TY-145 protease variant S114A (Bacillus sp. TY-145); experiment: as above
# [11] = molecular target: TY-145 protease variant Q70N (Bacillus sp. TY-145); experiment: as above
# [12] = molecular target: TY-145 protease variant L184F (Bacillus sp. TY-145); experiment: as above
# [13] = molecular target: TY-145 protease variant L184Y (Bacillus sp. TY-145); experiment: as above
# [14] = molecular target: TY-145 protease variant S173P, S175P, F180Y, L184F (Bacillus sp. TY-145); experiment: Ki fitted from Suc-AAPF-pNA activity; Model B detergent; ratio against m3 (without L184F); second row of the same variant
# [15] = molecular target: TY-145 protease variant S173P, S175P, F180Y, L184W (Bacillus sp. TY-145); experiment: Ki fitted from Suc-AAPF-pNA activity; Model B detergent; ratio against m3 (without L184W)
# [16] = molecular target: TY-145 protease variant S173P, S175P, F180Y, L184F (Bacillus sp. TY-145); experiment: Ki fitted from Suc-AAPF-pNA activity; Model B detergent; ratio against m3 (without L184F)
# [17] = molecular target: TY-145 protease variant S27K, I121V, S171N, S173P, G174R, S175P, F180Y, Q198E, R224S, T297P (Bacillus sp. TY-145); experiment: Ki fitted from Suc-AAPF-pNA activity; Model B detergent; ratio against m6 (without R224S)
# [18] = molecular target: TY-145 protease variant S27K, S173P, G174K, S175P, F180Y, L184F, Q198E, N199R, T297P (Bacillus sp. TY-145); experiment: Ki fitted from Suc-AAPF-pNA activity; Model B detergent; ratio against m9 (without L184F)
# [19] = molecular target: TY-145 protease variant K146T, S173P, S175P, F180Y (Bacillus sp. TY-145); experiment: Ki fitted from Suc-AAPF-pNA activity; Model B detergent; ratio against m3 (without K146T)
# [20] = molecular target: TY-145 protease variant I150A, S173P, S175P, F180Y (Bacillus sp. TY-145); experiment: Ki fitted from Suc-AAPF-pNA activity; Model B detergent; ratio against m3 (without I150A)
# [21] = molecular target: TY-145 protease variant S27K, S171N, S173P, G174R, S175P, F180Y, L184W, Q198E, T297P (Bacillus sp. TY-145); experiment: Ki fitted from Suc-AAPF-pNA activity; Model B detergent; ratio against m4 (without L184W)
# [22] = molecular target: TY-145 protease variant S114Q, S173P, S175P, F180Y (Bacillus sp. TY-145); experiment: Ki fitted from Suc-AAPF-pNA activity; Tris buffer pH 8; ratio against m3 (without S114Q)
# [23] = molecular target: TY-145 protease variant S173P, S175P, I178F, F180Y (Bacillus sp. TY-145); experiment: Ki fitted from Suc-AAPF-pNA activity; Model B detergent; ratio against m3 (without I178F)
# [24] = molecular target: TY-145 protease variant S173P, S175P, N176Y, F180Y (Bacillus sp. TY-145); experiment: Ki fitted from Suc-AAPF-pNA activity; Model B detergent; ratio against m3 (without N176Y)
# [25] = molecular target: TY-145 protease variant S173P, S175P, F180Y, L184Y (Bacillus sp. TY-145); experiment: Ki fitted from Suc-AAPF-pNA activity; Model B detergent; ratio against m3 (without L184Y)
# [26] = molecular target: TY-145 protease variant S27K, K146P, S148R, A151R, S171N, S173P, G174R, S175P, F180Y, Q198E, N199K, T297P (Bacillus sp. TY-145); experiment: Ki fitted from Suc-AAPF-pNA activity; Model B detergent; ratio against m5 (without A151R)
substance,measurement,setting,value
"Z-Gly-Ala-NHCH(CH2C6H4pOH)C(OH)(SO3Na)-H, wherein Z is benzyloxycarbonyl (peptide)",relative Ki mutation,[1],0.18
same,"IF (binding constant improvement factor, relative Ki)",[2],0.6
same,"IF (binding constant improvement factor, relative Ki)",[3],0.54
same,"IF (binding constant improvement factor, relative Ki)",[4],0.39
same,"IF (binding constant improvement factor, relative Ki)",[5],0.84
same,"IF (binding constant improvement factor, relative Ki)",[6],0.27
same,"IF (binding constant improvement factor, relative Ki)",[7],0.12
same,"IF (binding constant improvement factor, relative Ki)",[8],0.9
same,"IF (binding constant improvement factor, relative Ki)",[9],0.2
same,"IF (binding constant improvement factor, relative Ki)",[10],0.47
same,"IF (binding constant improvement factor, relative Ki)",[11],0.3
same,"IF (binding constant improvement factor, relative Ki)",[12],0.44
same,"IF (binding constant improvement factor, relative Ki)",[13],0.22
same,relative Ki mutation,[14],0.27
same,relative Ki mutation,[15],0.5
same,relative Ki mutation,[16],0.31
same,relative Ki mutation,[17],0.56
same,relative Ki mutation,[18],0.22
same,relative Ki mutation,[19],0.08
same,relative Ki mutation,[20],0.5
same,relative Ki mutation,[21],0.57
same,relative Ki mutation,[22],0.34
same,relative Ki mutation,[23],0.5
same,relative Ki mutation,[24],0.81
same,relative Ki mutation,[25],0.24
same,relative Ki mutation,[26],0.75
